This note sets out measurements from publication PMC6604950, “The ChlD subunit links the motor and porphyrin binding subunits of magnesium chelatase” (Biochemical Journal, 2019).

In series [1] the target is T1, ChlH (purified recombinant, Synechocystis) (Synechocystis sp. PCC 6803, UniProt P73020 1-1331, labelled with NHS-NT647 dye in the MST experiments; activated with EDC/NHS in the cross-linking experiment).
T1 construct: Magnesium chelatase subunit ChlH (~150 kDa), Synechocystis sp; PCC 6803; also called labelled ChlH
T1 sequence (looked up): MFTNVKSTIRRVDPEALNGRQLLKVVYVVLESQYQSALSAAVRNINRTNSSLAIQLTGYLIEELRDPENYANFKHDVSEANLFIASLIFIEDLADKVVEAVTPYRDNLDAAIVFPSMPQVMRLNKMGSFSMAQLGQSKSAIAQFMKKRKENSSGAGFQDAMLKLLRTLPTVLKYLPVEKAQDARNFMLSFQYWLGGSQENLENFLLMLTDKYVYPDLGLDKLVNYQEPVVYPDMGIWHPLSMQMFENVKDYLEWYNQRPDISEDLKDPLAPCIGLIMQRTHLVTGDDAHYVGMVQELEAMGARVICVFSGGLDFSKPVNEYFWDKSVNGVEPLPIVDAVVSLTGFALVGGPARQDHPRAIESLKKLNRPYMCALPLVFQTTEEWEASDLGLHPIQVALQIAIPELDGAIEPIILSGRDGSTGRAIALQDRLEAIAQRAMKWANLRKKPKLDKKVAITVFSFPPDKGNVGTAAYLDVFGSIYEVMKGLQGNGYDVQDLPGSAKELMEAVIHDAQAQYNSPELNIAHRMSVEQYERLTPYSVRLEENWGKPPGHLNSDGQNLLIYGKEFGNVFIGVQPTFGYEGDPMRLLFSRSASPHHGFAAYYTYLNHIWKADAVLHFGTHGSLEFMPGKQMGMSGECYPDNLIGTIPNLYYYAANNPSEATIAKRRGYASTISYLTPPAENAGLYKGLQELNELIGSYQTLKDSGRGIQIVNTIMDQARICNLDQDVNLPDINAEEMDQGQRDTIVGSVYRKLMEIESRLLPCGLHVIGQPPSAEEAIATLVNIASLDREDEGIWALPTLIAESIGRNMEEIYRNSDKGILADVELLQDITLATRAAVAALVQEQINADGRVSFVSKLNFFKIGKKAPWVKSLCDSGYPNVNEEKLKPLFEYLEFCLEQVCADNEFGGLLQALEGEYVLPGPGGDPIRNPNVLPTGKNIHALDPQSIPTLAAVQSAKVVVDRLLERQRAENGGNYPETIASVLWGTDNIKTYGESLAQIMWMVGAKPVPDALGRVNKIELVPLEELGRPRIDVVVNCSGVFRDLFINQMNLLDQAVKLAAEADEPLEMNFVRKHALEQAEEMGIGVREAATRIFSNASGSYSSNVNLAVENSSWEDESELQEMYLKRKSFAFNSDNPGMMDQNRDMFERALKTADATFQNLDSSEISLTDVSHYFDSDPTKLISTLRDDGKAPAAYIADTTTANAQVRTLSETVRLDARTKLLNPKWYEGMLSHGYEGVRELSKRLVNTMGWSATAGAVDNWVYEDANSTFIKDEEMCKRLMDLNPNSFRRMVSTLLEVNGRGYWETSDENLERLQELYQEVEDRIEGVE
The series can be described thus: MST; ChlD (or variant) titrated into 20 nM NT647-labelled ChlH; 50 mM Tris/NaOH, 0.2% Pluronic F-127, pH 7.8, without Mg2+; single-site model; Kd is an empirical description over all oligomeric states of ChlD. The following applies: both partners purified.

Series [2] has as its target T1, ChlH (purified recombinant, …). The series can be described thus: MST; ChlD (or variant) titrated into 20 nM NT647-labelled ChlH; 50 mM Tris/NaOH, 0.2% Pluronic F-127, pH 7.8, with 10 mM Mg2+; single-site model; Kd is an empirical description over all oligomeric states of ChlD. The following applies: both partners purified.
Series [3] deals with the molecule itself. The series can be described thus: MST; control ChlD-ChlD titration (Supplementary Figure S3); monomer to dimer.
In series [4] the target is T1, ChlH (purified recombinant, …). The experiment in a line: cell-based or functional assay.

B1: ChlD truncation A (AAA+ domain alone) (domain or fragment)
chain: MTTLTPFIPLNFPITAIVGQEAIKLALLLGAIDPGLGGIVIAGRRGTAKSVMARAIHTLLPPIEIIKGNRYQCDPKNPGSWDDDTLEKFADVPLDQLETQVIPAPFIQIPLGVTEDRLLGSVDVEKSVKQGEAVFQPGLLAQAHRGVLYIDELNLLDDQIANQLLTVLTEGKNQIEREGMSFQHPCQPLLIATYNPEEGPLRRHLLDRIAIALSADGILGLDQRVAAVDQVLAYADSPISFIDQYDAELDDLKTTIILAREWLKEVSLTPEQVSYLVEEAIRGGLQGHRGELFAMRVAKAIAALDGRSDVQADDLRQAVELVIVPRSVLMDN
For the molecule B1, the Kd was found to be 5930 nM in series [1] and 14600 nM in series [2].

B2: ChlD wild type (purified recombinant, Synechocystis) (natural protein)
chain: not shown
modifications: labelled with NHS-NT647 dye where it was the labelled partner in MST (ChlD-ChlD titration)
notes: Magnesium chelatase subunit ChlD (~75 kDa), Synechocystis sp; PCC 6803; also called WT ChlD
Turning to B2, the Kd in series [3] turned out to be 296 nM; in series [1], 2100 nM; in series [2], 331 nM. Also, the “stoichiometry N” value in series [3] turned out to be 2.

B3: ChlD S554R (natural protein)
chain: not shown
notes: Magnesium chelatase subunit ChlD, Synechocystis sp; PCC 6803, MIDAS motif point mutant; also called type II MIDAS mutant; source: E. coli, purified as wild type
Take B3: the “magnesium chelatase activity, rate relative to the wild-type protein” value in series [4] was about 5%. For the same molecule, the Kd in series [1] was found to be 988 nM; in series [2] it was 481 nM.

B4: ChlD QuinE (E510Q/E513Q/E600T/E603P/E605T) (natural protein)
chain: not shown
notes: Magnesium chelatase subunit ChlD, Synechocystis sp; also called quintuplet mutant of ChlD; source: E. coli, purified (as described previously)
On to B4, for which the Kd in series [1] was 512 nM; in series [2], 339 nM.

B5: ChlD S491A (natural protein)
chain: not shown
notes: Magnesium chelatase subunit ChlD, Synechocystis sp; PCC 6803, MIDAS motif point mutant; also called MIDAS mutant; source: E. coli, purified as wild type
On to B5, for which the figures for the Kd in series [1] and in series [2] were 351 nM and 147 nM, respectively.

B6: ChlD S489A (natural protein)
chain: not shown
notes: as for B5
With B6, the values for the Kd in series [1] and in series [2] were 3210 nM and 1980 nM, respectively.

B7: ChlD D487E (natural protein)
chain: not shown
notes: as for B5
For the molecule B7, the Kd worked out at 1490 nM in series [1] and 842 nM in series [2].

B8: ChlD truncation B (AAA+ domain with the polyproline region) (domain or fragment)
chain: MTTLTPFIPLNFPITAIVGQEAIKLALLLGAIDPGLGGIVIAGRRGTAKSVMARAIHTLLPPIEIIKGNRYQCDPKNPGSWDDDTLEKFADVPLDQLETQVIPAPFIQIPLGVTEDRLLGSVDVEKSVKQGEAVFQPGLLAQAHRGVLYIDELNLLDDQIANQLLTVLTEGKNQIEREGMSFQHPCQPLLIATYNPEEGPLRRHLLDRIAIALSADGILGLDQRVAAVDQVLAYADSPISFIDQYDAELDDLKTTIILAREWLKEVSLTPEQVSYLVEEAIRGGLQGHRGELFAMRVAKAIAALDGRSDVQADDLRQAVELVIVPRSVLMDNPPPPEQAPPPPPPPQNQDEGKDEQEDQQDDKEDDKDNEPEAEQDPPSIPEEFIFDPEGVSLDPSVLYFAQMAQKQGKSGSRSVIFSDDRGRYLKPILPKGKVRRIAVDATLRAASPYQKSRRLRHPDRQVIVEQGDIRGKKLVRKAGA
B8: the Kd in series [1] turned out to be 6760 nM; in series [2], 10500 nM.
